# Measured values taken from article PMC4215112 (2014).
# B1: M0418 scFv-Fcε fusion protein [human] / Bet v 1.0101 peptide I56 to D69 [modified: biotin at the N-terminus, before the additional glycine; biotin at the N-terminus, before the additional glycine] [birch] (parent complex)
# chain 1: QVQLVQSGAEVKKPGESLKISCKGSEYSFPNYWIAWVRQMPGKGLEWMGMIYPGDSDTRYSPSFQGQVNISADKSSRTAFLEWSSLKASDSATYFCARLGGQLWNSYYYYYYMDVWGKGTTVTVSSGGGGSGGGGSGGGGSSYELTQPPSASGTPGQRVTISCSGSSSNIGGNTVNWYQQVPGTAPRLLIYKNNQRPSGVPDRFSGSKSGTSASLAISGLRSEDEADYYCEAWDGGLRGGVFGGGTKLTVLGDYKDDDDKAAA
# chain 2: GISFPEGFPFKYVKDG
# Variants of: B1
# Test: ELISA; parent: 3.4; read off a plot
row,response,Variant
1,~3.4 Absorbance (450 nm),chain 2 GISFPEGFPVKYVKDG
2,~0.17 Absorbance (450 nm),chain 2 GISFSEGFPFKYVKDG
3,~3.4 Absorbance (450 nm),chain 2 GITFPEGFPFKYVKDG
4,~3.4 Absorbance (450 nm),chain 2 GINFPEGFPFKYVKDG
5,~0.22 Absorbance (450 nm),chain 2 GISFPEGFPFRYVKDG
6,~2 Absorbance (450 nm),chain 2 GISFPEGFPFEYVKDG

# More lines, now with the values behind:
row,Variant,response
1,chain 2 GISFPEGLPFKYVKDG,~0.2 Absorbance (450 nm)
2,chain 2 GISFPEGSPFKYVKDG,~0.22 Absorbance (450 nm)
3,chain 2 GISFPEGIPFKYVKDG,~2.8 Absorbance (450 nm)
4,chain 2 GISFPKGFPFKYVKDG,~3.4 Absorbance (450 nm)
5,chain 2 GISFPEGFPFKYVKEG,~3.4 Absorbance (450 nm)
